Data: article PMC9568494, “A portable electrochemiluminescence aptasensor for β-lactoglobulin detection”

Target: T1, beta-lactoglobulin (β-LG) (Bos taurus (cow)?, UniProt P02754 17-178)
T1 sequence: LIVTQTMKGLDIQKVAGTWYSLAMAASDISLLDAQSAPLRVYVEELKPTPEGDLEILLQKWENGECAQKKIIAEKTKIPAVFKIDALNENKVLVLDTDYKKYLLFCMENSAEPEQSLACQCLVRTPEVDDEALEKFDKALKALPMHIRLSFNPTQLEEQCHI
Experiment: electrochemical (chronoamperometric) titration on gold screen-printed electrode, immobilized β-LG, streptavidin-HRP/TMB; 2 mM MgCl2 in BS-LG selection buffer; aptamer 40-100 nM; Kd read as inflection point; Kd assay: BS-LG, 50 mM Tris pH 7.4, 150 mM NaCl, 2 mM MgCl2 (wash and HRP step; aptamer diluent not stated), 30 min incubation, temperature not stated
Conditions: protein: commercial; chain copies: 2; label: 5'-biotin

B1: BLG14 aptamer (ssDNA)
DNA: GACGATCGGACCGCAGTACCCACCCACCAGCCCCAACATCATGCCCATCCGTGTGTG
- Kd: 56 nM
